Experimental data taken from the DeepSol protein solubility set.

assay: soluble on expression in E. coli; label from the status in PepcDB or PDB records

Row | Sequence | soluble on expression in E. coli
1 | MRMRHKPWWDDFLAENADIAISNPADYKGKWNTVFGNDNPIHIEVGTGKGQFISGMAKQNPDINYIGIELFKSVIVTAVQKVKDSEAQNVKLLNIDADTLTDVFEPGEVKRVYLNFSDPWPKKRHEKRRLTYSHFLKKYEEVMGKGGSIHFKTDNRGLFEYSLKSFSEYGLLLTYVSLDLHNSNLEGNIMTEYEEKFSALGQPIYRAEVEWRT | soluble
2 | MRPLTRLVPLALLLLAGCAGPLPQPDPQMAWVELRSAPANTLLAERLDGERLSDGRYFQVTPGRHVLEVRFQYELYGGSGGGGGGFGEPVQINCYQQVVYDGFEAGRRYRLEVRPQLRRALALLSDERGEVVARSNFQTSRCPPY | not soluble
3 | MRPNLRFYVQTINDIVKTTEDIGEVMNPYYEEVRQAIDKNKVNDLTAERIAEIQAKFKEGTEKYELMLKKVGTLKPTPQVLGIHKKFQHAYTEYVAGCNEMILATDPETGIDADLFNASEEKQDQATDELTFAITRMSNILLKK | not soluble
4 | MRQALPLVTRQGDRIAIVSGLRTPFARQATAFHGIPAVDLGKMVVGELLARSEIPADAIEQLVFGQVVQMPEAPNIAREIVLGTGMNVHTDAYSVSRACATSFQAVANVAESLMAGTIRAGIAGGADSSSVLPIGVSKALARVLVDVNKARTTRQRLTLFSRLRLRDLLPVPPAVAEYSTGLRMGDTAEQMAKTYGITREQQDALAHRSHQRAAQAWAEGKLAEEVMTTYVPPYKNPFAEDNNIRGASTLADYAKLRPAFDRKHGSVTAANSTPLTDGAAAVILMTESRAKELGLRPLGYLRTYAFTAIDVWQDMLLGPAWSTPLALERAGLTMADLTLFDMHEAFAAQTLANLQLLGSERFAREVLGCAQATGEVDDAKFNVLGGSIAYGHPFAATGARMITQTLHELRRRGGGFGLVTACAAGGLGAAMVLEAE | not soluble
5 | MRQRFLPLLALLSLLLPLPAPAAPTVSTVADQTGIALTIYNRNLGLVKDRREIRLAPGNGELRFMDVAAQIIPTSVSIASLAGGELQVLEQNYEYDLLSPQKLMDKYVGKEVKLHQKNPYTEREEVVTATLLSNNGGPVYRIGDEITFGHPGRLIFPGVPDDLIARPTLVWLLEGAAVEKRTIEASYLTGGISWRADYVVTLSEKDDQANLAGWVTIDNRSGAAYRNATLKLVAGDVNRVQEQSTRFAKSVRAEAMAPAPQFQEEAFFEYHLYTLQRPSTIKENQTKQINLVTADAVPVKKEFLLKGESFYYQSPAGEVEKQKVGVFVEMENRKEHNLGMPLPKGIVRVYKRDAGGSLQFVGEDTIDHTPEKETVRVKLGDAFDVVGERKQTEWRKVASDTYESAFEIRLRNHKKEDITVKVVEPVPGDWQMLSSSHPHEKGDAFSAVFKVPVPKDGEATLVYRVRMRYLEHHHHHH | soluble
6 | MRQSGSWMTIWDDRILEIIHEEGNGSPKELEDRDEIRISKSSVSRRLKKLADHDLLQPLANGVYVITEEGEAYLNGEYDAGKERYINRGNSTDEENGADAPDGPGINS | soluble
7 | MRRFQRSTVIDAPRELVWAFHEQADVLEQLTPPWLPVEVVRREGGLGPGAVSEFRLWLGPVPIRWVATHNDDYEPGRCFCDRQSQGPFADWLHRHIFSREGDRTRLIDEVEYALPGGWLPELSVGPVVDAQLERLFAYRQQVTKQWCESRRDAFLQSNRTTKGLQSLLEHHHHHH | soluble
8 | MRSKGFLHLDTEIVVPFFDVDMMNIVWHGHYVKYLEVARCALLDHIGHNYMQMLESGYGWPVIDLQLRYVRSAVFGQKLNVRASLVEWENRLKINYLITDADTGERLTRASTVQVAVDRDSHEMQLASPQVFIDAVKRALPLEHHHHHH | soluble
9 | MRSKYIVIEGLEGAGKTTARNVVVETLEQLGIRDMVFTREPGGTQLAEKLRSLLLDIKSVGDEVITDKAEVLMFYAARVQLVETVIKPALANGTWVIGDRHDLSTQAYQGGGRGIDQHMLATLRDAVLGDFRPDLTLYLDVTPEVGLKRARARGELDRIEQESFDFFNRTRARYLELAAQDKSIHTIDATQPLEAVMDAIRTTVTHWVKELDA | soluble
10 | MRSMTDVRRYWISLLRKICEMPLELCASDRLKKSMPVEGKKSEERRKFTHLELLGRIFCGISPFLELNRESPSTDPEERKIATRLSEFAVKSLDVATNPNCKDYMNFKEGRQPLVDAAFLVEAILRAPKVLWEDLDVSTKKRLIRELKATRKIEPYFSNWLLFSAMIETFFFFAGEEWDSTKVDLILKNVESWYKGDGAYGDGPFFRWDYYNSFVIYPMTIDVLRIISEEKTEWKELYVKVLRRAQRYAVVLERMISPEGTFPIIGRSITYRTAVFHLLSQLSLLHLLPASLSPAQVRCALTAVLRRIFENPSTFDENGWLKIGVIGSQPSLGEEYITTGSLYLCTTVFLPLGLPTSDPFWRDPCKKWTNKKVWEGEDVAPDRALEDLEHHHHHH | soluble
11 | MRTLGLDLGTKTLGVAVSDELGLTAQGLETIAIDTERGDYGLKRLRAIIDEYGVDTIVVGWPKNMNGTLGPRAEASERFAAKLREEFSLPVVLRDERLSTMAAERMLIAADVSRKKRRKVIDKMAAAVILQSYLDSKR | not soluble
12 | MRTNSEIISLIQSKVEERKMSMSELARNVGIAKSTMSRYFNKTREFPLNRADDFAKALNISTEFLLGIDLNSEVDGSELLGIYRELEEQRRVIVLDTAKEQLEEQTKIINFSDKKTDIEDIFEVKGTTFAAAASGFGRGFEADDYDTYTVYTDEEPPHYDYAIGIRGDSMLPKYEQGDMLYIVDKGMSTYSGQLCIVVHNGNTYFKKVYTEHDGLRLVSLNKKYSDIFIGYPPAEDTYIKIYDVVGSFTPIEF | not soluble
13 | MRTSIATVCLSGTLAEKLRAAADAGFDGVEIFEQDLVVSPHSAEQIRQRAQDLGLTLDLFQPFRDFEGVEEEQFLKNLHRLEEKFKLMNRLGIEMILLCSNVGTATINDDDLFVEQLHRAADLAEKYNVKIAYEALAWGKFVNDFEHAHALVEKVNHKALGTCLDTFHILSRGWETDEVENIPAEKIFFVQLADAPKLSMDILSWSRHHRVFPGEGDFDLVKFMVHLAKTGYDGPISLEIFNDSFRKAEVGRTAIDGLRSLRWLEDQTWHALNAEDRPSALELR | not soluble
